Laboratory results taken from EP1736482A1.

Legend:
[1] = target: 4-1BB on CD3-stimulated human T lymphocytes (PBMC) (human) (UniProt Q07011); assay: flow cytometry on CD3-stimulated PBMC, PE-conjugated antibody
[2] = target: recombinant human 4-1BB-Fc chimera (R&D Systems) (human) (UniProt Q07011); assay: SPR (BIAcore 2000), 4-1BB-Fc coupled to CM5 chip, ligand in flow, 25°C
[3] = target: 4-1BB on CD3-stimulated human T lymphocytes (PBMC) (human) (UniProt Q07011); assay: cell-based or functional assay
[4] = target: 4-1BB on CD3-stimulated human T lymphocytes (PBMC) (human) (UniProt Q07011); assay: flow cytometry on CD3-stimulated PBMC, ligand at 10 µg/ml revealed by PE-conjugated streptavidine

Sequence of recombinant human 4-1BB-Fc chimera (R&D Systems) (human) (Q07011 24-186, change not shown): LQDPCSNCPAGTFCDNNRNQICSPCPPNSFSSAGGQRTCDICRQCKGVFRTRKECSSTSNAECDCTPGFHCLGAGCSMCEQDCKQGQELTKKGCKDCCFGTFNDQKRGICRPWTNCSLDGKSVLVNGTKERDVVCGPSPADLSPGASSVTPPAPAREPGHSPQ
Sequence of 4-1BB on CD3-stimulated human T lymphocytes (PBMC) (human) (Q07011 24-255): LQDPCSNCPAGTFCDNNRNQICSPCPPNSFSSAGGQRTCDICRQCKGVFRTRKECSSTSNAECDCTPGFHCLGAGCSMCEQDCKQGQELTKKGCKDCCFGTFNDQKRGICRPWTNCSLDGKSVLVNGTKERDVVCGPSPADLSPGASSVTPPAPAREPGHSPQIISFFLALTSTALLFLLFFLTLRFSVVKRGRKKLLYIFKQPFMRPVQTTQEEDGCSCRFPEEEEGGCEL

Substance “PE-conjugated anti 4-1BB mAb (clone 4B4-1, BD Biosciences) (antibody)” has a percentage of 4-1BB positive activated T cells stained [1] of 64%.
With “C51S AviTag-4-1BBL (from UniProt P41273 50-254) (ligand)” the Kd [2] was 2.3 nM, the koff [2] was 0.00052 s⁻¹ and the kon [2] was 230000 M⁻¹ s⁻¹.
“WT AviTag-4-1BBL (trimeric recombinant human 4-1BBL extracellular domain with N-terminal AviTag, produced in E. coli and refolded) (from UniProt P41273 50-254) (ligand)” gave an inhibition of the proliferation of CD3-stimulated PBMC (tritiated thymidine incorporation) [3] of 70% and a percentage of 4-1BB positive activated T cells stained [4] of 60%.
